This is an account of results in paper PMC6222663, “Biochemical Characterization of the Rice Cinnamyl Alcohol Dehydrogenase Gene Family” (Molecules : A Journal of Synthetic Chemistry and Natural …, 2018).

What all share (assay): NADPH consumption at A340, Lineweaver-Burk
Format in all cases: biochemical, Oryza sativa
Holding throughout (settings): 300 μM NADPH, 100 mM sodium/potassium phosphate pH 6.25, 30 °C, substrate 5–50 μM

Substrate in data set [1]: COc1cc(/C=C/C=O)ccc1O
The text has this:
(§1) NADPH consumption at A340, Lineweaver-Burk on OsCAD2

Substrate in data set [2]: COc1cc(/C=C/C=O)cc(OC)c1O
Description: as §1

Substrate in data set [3]: O=C/C=C/c1ccc(O)cc1
Description: as §1

Substrate in data set [4]: O=CC=Cc1ccccc1
Description: as §1

Substrate in data set [5]: COc1cc(/C=C/C=O)ccc1O
The text has this:
(§2) NADPH consumption at A340, Lineweaver-Burk on OsCAD6
The source holds these as a separate data set.

Substrate in data set [6]: COc1cc(/C=C/C=O)cc(OC)c1O
Description: as §2
This is another data set of the same source.

Substrate in data set [7]: O=C/C=C/c1ccc(O)cc1
Description: as §2
The source holds these as a separate data set.

Substrate in data set [8]: O=CC=Cc1ccccc1
Description: as §2
This is another data set of the same source.

Substrate in data set [9]: COc1cc(/C=C/C=O)ccc1O
The text has this: (§3) NADPH consumption at A340, Lineweaver-Burk on OsCAD7
The source holds these as a separate data set.

Substrate in data set [10]: COc1cc(/C=C/C=O)cc(OC)c1O
Description: as §3
This is another data set of the same source.

Substrate in data set [11]: O=C/C=C/c1ccc(O)cc1
Description: as §3
The source holds these as a separate data set.

Substrate in data set [12]: O=CC=Cc1ccccc1
Description: as §3
This is another data set of the same source.

B1: OsCAD2 (Oryza sativa Japonica Group) (protein)
chain: MGSLAAEKTVTGWAARDASGHLTPYNYTLRKTGPEDVVVKVLYCGICHTDIHQAKNHLGASKYPMVPGHEVVGEVVEVGPEVTKYSAGDVVGVGVIVGCCRECHPCKANVEQYCNKRIWSYNDVYTDGRPTQGGFASAMVVDQKFVVKIPAGLAPEQAAPLLCAGLTVYSPLKHFGLMSPGLRGGVLGLGGVGHMGVKVAKSMGHHVTVISSSARKRGEAMDDLGADAYLVSSDAAAMAAAGDSLDYIIDTVPVHHPLEPYLALLKLDGKLILMGVINQPLSFISPMVMLGRKAITGSFIGSMAETEEVLNFCVDKGLTSQIEVVKMDYVNQALERLERNDVRYRFVVDVAGSNIDDADAPPA
As to B1, the Km turned out to be 4.37 ± 0.85 µM in data set [1], 8.19 ± 2.62 µM in [2], 9.36 ± 2.50 µM in [3] and 5.30 ± 3.42 µM in [4]. Also, the Vmax came out at 38.7 µmol/min/mg in data set [1], 52.9 µmol/min/mg in data set [2], 17.8 µmol/min/mg in [3] and 11.6 µmol/min/mg in [4]. Besides, the kcat in [1] is 30.1 s⁻¹; in data set [2], 41.2 s⁻¹; in data set [3] it was 13.9 s⁻¹; in [4], 9.05 s⁻¹. Moreover, the kcat/Km in [1] was determined as 7.15e+06 M⁻¹ s⁻¹; in data set [2], 5.35e+06 M⁻¹ s⁻¹; in [3] it was 1.54e+06 M⁻¹ s⁻¹; in [4], 2.37e+06 M⁻¹ s⁻¹.

B2: OsCAD6 (Oryza sativa Japonica Group) (protein)
chain: MEVTPNHTQTVSGWAAMDESGKIVPFVFKRRENGVDDVTIKVKYCGMCHTDLHFIHNDWGITMYPVVPGHEITGVVTKVGTNVAGFKVGDRVGVGCIAASCLDCEHCRRSEENYCDKVALTYNGIFWDGSITYGGYSGMLVAHKRFVVRIPDTLPLDAAAPLLCAGITVYSPMKQHGMLQADAAGRRLGVVGLGGLGHVAVKFGKAFGLHVTVISTSPAKEREARENLKADNFVVSTDQKQMQAMTRSLDYIIDTVAATHSLGPILELLKVNGKLVLVGAPEKPVELPSFPLIFGKRTVSGSMTGGMKETQEMMDICGEHNITCDIEIVSTDRINDALARLARNDVRYRFVINVGGDSKL
On to B2, for which the Km in [5] is 16.18 ± 4.49 µM; in [6], 10.72 ± 0.47 µM; in data set [7], 10.88 ± 4.29 µM; in data set [8], 28.25 ± 11.36 µM. Besides, the Vmax in [5] came to 0.217 µmol/min/mg; in data set [6], 0.103 µmol/min/mg; in data set [7], 0.11 µmol/min/mg; in data set [8], 0.439 µmol/min/mg. Besides, the kcat is 0.154 s⁻¹ in [5], 0.0733 s⁻¹ in data set [6], 0.0757 s⁻¹ in data set [7] and 0.311 s⁻¹ in [8]. Besides, the kcat/Km in data set [5] came to 9670 M⁻¹ s⁻¹; in data set [6], 6830 M⁻¹ s⁻¹; in [7] it was 7500 M⁻¹ s⁻¹; in data set [8], 11500 M⁻¹ s⁻¹.

B3: OsCAD7 (Oryza sativa Japonica Group) (protein)
chain: MAPTTTATAAAEQAPPPQHTRKAVGLAAHDDSGHLTPIRISRRKTGDDDVAIKVLYCGICHSDLHTIKNEWRNAVYPVVAGHEITGVVTEVGKNVARFKAGDEVGVGCMVNTCGGCESCRDGCENYCSGGVVFTYNSVDRDGTRTYGGYSDAVVVSQRFVVRFPSSAGGGAGAALPLDSGAPLLCAGVTVYAPMRQHGLCEAGKHVGVVGLGGLGHVAVKFARAFGMRVTVISTSPVKRQEALERLGADGFIVSTNASEMKAAMGTMHGIINTASASTSMHSYLALLKPKGKMILVGLPEKPLQIPTFALVGGGKILAGSCMGSISETQEMIDFAAEHGVAADIELIGADEVNTAMERLAKGDVRYRFVVDIGNTLRSD
With B3, the Km in data set [9] worked out at 11.44 ± 2.16 µM; in [10], 6.42 ± 1.77 µM; in data set [11], 2.66 ± 0.49 µM; in data set [12] it was 14.11 ± 4.00 µM. The Vmax was found to be 0.38 µmol/min/mg in data set [9], 0.17 µmol/min/mg in data set [10], 0.09 µmol/min/mg in [11] and 0.25 µmol/min/mg in [12]. For the same protein, the catalytic constant (kcat) in [9] is 0.285 s⁻¹; in data set [10] it was 0.128 s⁻¹; in data set [11], 0.0692 s⁻¹; in [12] it was 0.188 s⁻¹. Further, the kcat/Km came to 25300 M⁻¹ s⁻¹ in data set [9], 21200 M⁻¹ s⁻¹ in data set [10], 26300 M⁻¹ s⁻¹ in data set [11] and 13700 M⁻¹ s⁻¹ in data set [12].

One may read the Km as the concentration of substrate that gives half-maximal velocity. The term Vmax denotes the rate approached at saturating substrate. As a reminder, the kcat is the number of substrate molecules converted per active site and unit of time at saturation. The kcat/Km is the turnover number divided by the Michaelis constant.
